For 1 molecule, Kd results are on record in publication PMC7715031.

The target in the assay is VISTA-Fc human recombinant protein (human), Q9H7M9. The experiment in a line: synchrotron radiation circular dichroism (SRCD) titration; fixed concentration of VISTA-Fc (or human Ig-Fc) and increasing concentrations of galectin-9, in solution; 23°C. The conditions noted are these: remark: other sources report otherwise.

B1: human recombinant galectin-9, O00182 1-355 (ligand)
chain: MAFSGSQAPYLSPAVPFSGTIQGGLQDGLQITVNGTVLSSSGTRFAVNFQTGFSGNDIAFHFNPRFEDGGYVVCNTRQNGSWGPEERKTHMPFQKGMPFDLCFLVQSSDFKVMVNGILFVQYFHRVPFHRVDTISVNGSVQLSYISFQNPRTVPVQPAFSTVPFSQPVCFPPRPRGRRQKPPGVWPANPAPITQTVIHTVQSAPGQMFSTPAIPPMMYPHPAYPMPFITTILGGLYPSKSILLSGTVLPSAQRFHINLCSGNHIAFHLNPRFDENAVVRNTQIDNSWGSEERSLPRKMPFVRGQSFSVWILCEAHCLKVAVDGQHLFEYYHRLRNLPTINRLEVGGDIQLTHVQT
The term Kd denotes a measure of binding affinity in units of concentration. On to B1, for which the Kd was 18 nM.
